In publication PMC4657913:

Target: RHDV VPg fused to the VN155 (I152L) fragment for BiFC (Rabbit hemorrhagic disease virus (RHDV) strain CHA/JX/97)
Assay: split reporter (BiFC, NanoBiT); BiFC in RK-13 cells, pVPg-VN and peIF4E-VC; green fluorescence quantified by flow cytometry 48 h after transfection

eIF4E fused to the VC155 fragment for BiFC (from UniProt P29338 1-217) (natural protein)
BiFC signal-to-noise (ratio between the treatment and control groups): > 3
